# B1: Azoarcus group I ribozyme (parent)
# chain: GUGCCUUGCGCCGGGAAACCACGCAAGGGAUGGUGUCAAAUUCGGCGAAACCUAAGCGCCCGCCCGGGCGUAUGGCAACGCCGAGCCAAGCUUCGGCGCCUGCGCCGAUGAAGGUGUAGAGACUAGACGGCACCCACCUAAGGCAAACGCUAUGGUGAAGGCAUAGUCCAGGGAGUGGCGAAAGUCACACAAACCGG
# Variants of: B1
# Experiment: reverse-splicing fitness (ratio to wild type); higher = more active; in vitro selection; Mg2+ level not given
# Method in brief: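 An in vitro group I ribozyme library with randomized positions was T7-transcribed and gel-purified. In triplicate, 10 pmol RNA in EPPS pH 7.5 was reacted with 50 pmoles of a 30-nt RNA substrate for 1 h at 37 °C across several added MgCl2 levels (1–48 mM), then stopped with EDTA. Products were reverse transcribed from a substrate-complementary primer, PCR-amplified and sequenced (HiSeq 4000). Fitness is a variant's read proportion after selection over that before, normalised to wild type.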
row,Variant,reverse-splicing fitness
1,GUGCCUUGCGCCGGGAAACCACGCAAGGGAUGGUGUCAAAUUCGGCGAAACCUAAGCGCCCGCCCGGGCGUAUGGCAACGCGGAGCCAAGCUUCGGCGCCUGCGCCGAUGUAGGUGUAGUGACUAGACGGCACCCACCUAAGGCCAACGCUAUGGUGAAGGCAUAGUCGAGGGAGGGGCGAAAGUCACACAAACCGG [C82G A111U A120U A145C C169G U176G],0.00158
2,GUGCCUUGCGCCGGGAAACCACGCAAGGGAUGGUGUCAAAUUCGGCGAAACCUAAGCGCCCGCCCGGGCGUAUGGCAACGCGGAGCCAAGCUUCGGCGCCUGCGCCGAUGUAGGUGUAGUGACUAGACGGCACCCACCUAAGGCCAACGCUAUGGUGAAGGCAUAGUCGAGGGAGAGGCGAAAGUCACACAAACCGG [C82G A111U A120U A145C C169G U176A],0.00225
3,GUGCCUUGCGCCGGGAAACCACGCAAGGGAUGGUGUCAAAUUCGGCGAAACCUAAGCGCCCGCCCGGGCGUAUGGCAACGCGGAGCCAAGCUUCGGCGCCUGCGCCGAUGUAGGUGUAGUGACUAGACGGCACCCACCUAAGGCCAACGCUAUGGUGAAGGCAUAGUCGAGGGAGCGGCGAAAGUCACACAAACCGG [C82G A111U A120U A145C C169G U176C],0.00219
4,GUGCCUUGCGCCGGGAAACCACGCAAGGGAUGGUGUCAAAUUCGGCGAAACCUAAGCGCCCGCCCGGGCGUAUGGCAACGCGGAGCCAAGCUUCGGCGCCUGCGCCGAUGUAGGUGUAGUGACUAGACGGCACCCACCUAAGGCCAACGUUAUGGUGAAGGCAUAGUCUAGGGAGGGGCGAAAGUCACACAAACCGG [C82G A111U A120U A145C C150U C169U U176G],0.00228
5,GUGCCUUGCGCCGGGAAACCACGCAAGGGAUGGUGUCAAAUUCGGCGAAACCUAAGCGCCCGCCCGGGCGUAUGGCAACGCGGAGCCAAGCUUCGGCGCCUGCGCCGAUGUAGGUGUAGUGACUAGACGGCACCCACCUAAGGCCAACGUUAUGGUGAAGGCAUAGUCUAGGGAGCGGCGAAAGUCACACAAACCGG [C82G A111U A120U A145C C150U C169U U176C],0.00208
6,GUGCCUUGCGCCGGGAAACCACGCAAGGGAUGGUGUCAAAUUCGGCGAAACCUAAGCGCCCGCCCGGGCGUAUGGCAACGCGGAGCCAAGCUUCGGCGCCUGCGCCGAUGUAGGUGUAGUGACUAGACGGCACCCACCUAAGGCCAACGUUAUGGUGAAGGCAUAGUCUAGGGAGAGGCGAAAGUCACACAAACCGG [C82G A111U A120U A145C C150U C169U U176A],0.00361
7,GUGCCUUGCGCCGGGAAACCACGCAAGGGAUGGUGUCAAAUUCGGCGAAACCUAAGCGCCCGCCCGGGCGUAUGGCAACGCGGAGCCAAGCUUCGGCGCCUGCGCCGAUGUAGGUGUAGUGACUAGACGGCACCCACCUAAGGCCAACGCUAUGGUGAAGGCAUAGUCCAGGGAGAGGCGAAAGUCACACAAACCGG [C82G A111U A120U A145C U176A],0.00848
8,GUGCCUUGCGCCGGGAAACCACGCAAGGGAUGGUGUCAAAUUCGGCGAAACCUAAGCGCCCGCCCGGGCGUAUGGCAACGCGGAGCCAAGCUUCGGCGCCUGCGCCGAUGUAGGUGUAGUGACUAGACGGCACCCACCUAAGGCCAACGCUAUGGUGAAGGCAUAGUCUAGGGAGCGGCGAAAGUCACACAAACCGG [C82G A111U A120U A145C C169U U176C],0.00238
9,GUGCCUUGCGCCGGGAAACCACGCAAGGGAUGGUGUCAAAUUCGGCGAAACCUAAGCGCCCGCCCGGGCGUAUGGCAACGCGGAGCCAAGCUUCGGCGCCUGCGCCGAUGUAGGUGUAGUGACUAGACGGCACCCACCUAAGGCCAACGCUAUGGUGAAGGCAUAGUCUAGGGAGAGGCGAAAGUCACACAAACCGG [C82G A111U A120U A145C C169U U176A],0.00287
10,GUGCCUUGCGCCGGGAAACCACGCAAGGGAUGGUGUCAAAUUCGGCGAAACCUAAGCGCCCGCCCGGGCGUAUGGCAACGCGGAGCCAAGCUUCGGCGCCUGCGCCGAUGUAGGUGUAGUGACUAGACGGCACCCACCUAAGGCCAACGCUAUGGUGAAGGCAUAGUCUAGGGAGGGGCGAAAGUCACACAAACCGG [C82G A111U A120U A145C C169U U176G],0.00178
11,GUGCCUUGCGCCGGGAAACCACGCAAGGGAUGGUGUCAAAUUCGGCGAAACCUAAGCGCCCGCCCGGGCGUAUGGCAACGCGGAGCCAAGCUUCGGCGCCUGCGCCGAUGUAGGUGUAGUGACUAGACGGCACCCACCUAAGGCCAACGUUAUGGUGAAGGCAUAGUCUAGGGAGUGGCGAAAGUCACACAAACCGG [C82G A111U A120U A145C C150U C169U],0.00298
12,GUGCCUUGCGCCGGGAAACCACGCAAGGGAUGGUGUCAAAUUCGGCGAAACCUAAGCGCCCGCCCGGGCGUAUGGCAACGCGGAGCCAAGCUUCGGCGCCUGCGCCGAUGUAGGUGUAGUGACUAGACGGCACCCACCUAAGGCCAACGUUAUGGUGAAGGCAUAGUCGAGGGAGUGGCGAAAGUCACACAAACCGG [C82G A111U A120U A145C C150U C169G],0.00286
13,GUGCCUUGCGCCGGGAAACCACGCAAGGGAUGGUGUCAAAUUCGGCGAAACCUAAGCGCCCGCCCGGGCGUAUGGCAACGCGGAGCCAAGCUUCGGCGCCUGCGCCGAUGUAGGUGUAGUGACUAGACGGCACCCACCUAAGGCCAACGUUAUGGUGAAGGCAUAGUCAAGGGAGUGGCGAAAGUCACACAAACCGG [C82G A111U A120U A145C C150U C169A],0.00282
14,GUGCCUUGCGCCGGGAAACCACGCAAGGGAUGGUGUCAAAUUCGGCGAAACCUAAGCGCCCGCCCGGGCGUAUGGCAACGCGGAGCCAAGCUUCGGCGCCUGCGCCGAUGUAGGUGUAGUGACUAGACGGCACCCACCUAAGGCCAACGUUAUGGUGAAGGCAUAGUCGAGGGAGAGGCGAAAGUCACACAAACCGG [C82G A111U A120U A145C C150U C169G U176A],0.00298
15,GUGCCUUGCGCCGGGAAACCACGCAAGGGAUGGUGUCAAAUUCGGCGAAACCUAAGCGCCCGCCCGGGCGUAUGGCAACGCGGAGCCAAGCUUCGGCGCCUGCGCCGAUGUAGGUGUAGUGACUAGACGGCACCCACCUAAGGCCAACGUUAUGGUGAAGGCAUAGUCGAGGGAGGGGCGAAAGUCACACAAACCGG [C82G A111U A120U A145C C150U C169G U176G],0.0021

# Reference: the RNAGym collection of RNA variant scans (doi:10.1093/molbev/msab373)
